# Experimental data reported in patent publication US20220242962A1 (APTEVO RESEARCH AND DEVELOPMENT, published 2022).
# Numbering of substitutions follows the chain as printed. Names and notes keep the numbering of the source.
# T1: Fc gamma receptor RIIA H167 (human, UniProt P12318 36-218)
# T1 construct: soluble SPR analyte
# T1 sequence (looked up): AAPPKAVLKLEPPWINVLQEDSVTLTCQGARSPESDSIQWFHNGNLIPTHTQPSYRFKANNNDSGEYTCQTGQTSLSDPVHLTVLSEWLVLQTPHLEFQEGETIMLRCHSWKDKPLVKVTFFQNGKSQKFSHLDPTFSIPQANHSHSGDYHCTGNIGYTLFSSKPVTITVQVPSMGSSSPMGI
# T2: Fc gamma receptor RIIB/C (human, UniProt P31994 46-217)
# T2 construct: soluble SPR analyte
# T2 sequence (looked up): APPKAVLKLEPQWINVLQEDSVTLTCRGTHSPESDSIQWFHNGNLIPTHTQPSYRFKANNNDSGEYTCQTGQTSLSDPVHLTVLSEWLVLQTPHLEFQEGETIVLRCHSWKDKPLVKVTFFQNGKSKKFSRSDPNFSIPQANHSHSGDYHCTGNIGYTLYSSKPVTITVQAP
# T3: Fc gamma receptor RIIA R167 (human, UniProt P12318 36-218)
# T3 construct: soluble SPR analyte
# T3 sequence (looked up): T1 sequence (looked up) with H132R
# T4: Fc gamma receptor RIIA H131 on CHO-K1SV cells (human, UniProt P12318 34-317)
# T4 construct: whole, on cells
# T4 sequence (looked up): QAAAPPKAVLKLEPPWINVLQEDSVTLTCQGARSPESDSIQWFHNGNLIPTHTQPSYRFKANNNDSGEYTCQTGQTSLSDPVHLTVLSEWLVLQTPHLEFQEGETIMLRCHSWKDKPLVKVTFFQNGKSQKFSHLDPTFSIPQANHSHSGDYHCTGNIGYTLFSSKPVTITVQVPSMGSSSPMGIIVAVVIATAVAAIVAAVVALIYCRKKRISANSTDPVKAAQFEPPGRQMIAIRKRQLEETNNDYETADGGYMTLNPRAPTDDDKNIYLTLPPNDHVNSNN
# T5: Fc gamma receptor RIIB/C on CHO-K1SV cells (human, UniProt P31994 43-310)
# T5 construct: whole, on cells
# T5 sequence (looked up): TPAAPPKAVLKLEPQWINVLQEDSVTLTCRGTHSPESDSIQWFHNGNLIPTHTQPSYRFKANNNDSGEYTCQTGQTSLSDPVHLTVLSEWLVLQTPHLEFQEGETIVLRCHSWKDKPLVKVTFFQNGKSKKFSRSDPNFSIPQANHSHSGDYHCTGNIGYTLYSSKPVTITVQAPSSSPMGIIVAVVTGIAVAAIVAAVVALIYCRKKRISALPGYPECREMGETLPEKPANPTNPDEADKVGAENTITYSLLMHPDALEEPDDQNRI
# T6: Full-length Cyno 4-1BB (cynomolgus monkey, UniProt Q07011 24-255 (human entry))
# T6 construct: on Jurkat or CHO cells; also called FOB006; cynomolgus 4-1BB
# T6 chain: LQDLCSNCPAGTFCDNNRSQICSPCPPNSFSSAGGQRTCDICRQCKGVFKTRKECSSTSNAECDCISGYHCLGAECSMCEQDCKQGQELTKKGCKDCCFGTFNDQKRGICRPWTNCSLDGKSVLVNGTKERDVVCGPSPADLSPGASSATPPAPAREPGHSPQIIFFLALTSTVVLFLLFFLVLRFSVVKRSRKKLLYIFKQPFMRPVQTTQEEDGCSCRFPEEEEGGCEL
# B1: TSC 1004 (other)
# chain: EPKSSDKTHTCPPCPAPPVAGAPSVFLFPPKPKDTLMISRTPEVTCVVVDVSHEDPEVKFNWYVDGVEVHNAKTKPREEQYNSTYRVVSVLTVLHQDWLNGKEYKCAVSNKALPAPIEKTISKAKGQPREPQVYTLPPSRDELTKNQVSLTCLVKGFYPSDIAVEWESNGQPENNYKTTPPVLDSDGSFFLYSKLTVDKSRWQQGNVFSCSVMHEALHNHYTQKSLSLSPG
# notes: IgG1 Fc with E233P, L234V, L235A, G237A, K322A (EU); also called PVAG TSC01004
# B2: TSC 1006 (other)
# chain: B1 chain with V19A
# notes: IgG1 Fc with E233P, L234A, L235A, G237A, K322A (EU); also called PAAG TSC01006
# B3: TSC 1007 (other)
# chain: EPKSSDKTHTCPPCPAPPAAAPSVFLFPPKPKDTLMISRTPEVTCVVVDVSHEDPEVKFNWYVDGVEVHNAKTKPREEQYNSTYRVVSVLTVLHQDWLNGKEYKCAVSNKALPAPIEKTISKAKGQPREPQVYTLPPSRDELTKNQVSLTCLVKGFYPSDIAVEWESNGQPENNYKTTPPVLDSDGSFFLYSKLTVDKSRWQQGNVFSCSVMHEALHNHYTQKSLSLSPG
# notes: IgG1 Fc with E233P, L234A, L235A, deletion of G236, G237A, K322A (EU); also called PAAdel TSC01007
# B4: Clone 6 anti-41BB murine monoclonal antibody (antibody, V domains shown)
# VH: QVQLQQPGAELVKPGASVKLSCKASGYTFTSYWINWVKQRPGQGLEWIGNIYPGSSTTNYNEKFKSKATLTVDTSSSTAYMQLSSLTSDDSAVFYCASFSDGYYAYAMDYWVQGTSVTVSS
# VL: DIQMTQTTSSLSASLGDRVTITCRASQDISNYLNWYQQKPDGTVKLLIYYTSRLHSGVPSRFSGGGSGTDYSLTISNLEQEDIATYFCQQGYTLPYTFGGGTKLEIK
# notes: hybridoma-derived mouse antibody; also called mAb Clone 6; mouse clone 6
# Key:
# [1] = molecular target: T7, Recombinant FcRn/b2M protein (human, UniProt P55899 24-297; P61769 21-119, limits assumed); test: SPR pH 6.0, FcRn/b2M immobilized, two-state reaction model
# T7 construct: also called hFcRn/b2M; neonatal Fc receptor
# Method: Recombinant FcRn/b2M protein was generated via transient transfection of HEK-293 cells with a bi-cistronic vector containing the genes for both FcRn and […]. The complex was purified using IMAC chromatography and subsequently buffer exchanged into IMAC elution buffer after verifying purity of the IMAC eluate by analytical SEC. hFcRn/b2M at 10 μg/ml in 10 mM sodium acetate (pH 4.5) was immobilized on a CM5 chip by direct amine coupling chemistry to a level of ˜600 RU. A reference flow cell was left blank.
# Different concentrations of the Fc variant protein (5-80 nM by 2-fold dilutions in pH 6.0 running buffer) including running buffer as blank were injected in randomized order at 30 μL/min for 180 seconds followed by a 120 second dissociation period.
# Sensorgrams obtained from kinetic SPR measurements were analyzed by the double subtraction method. The signal from the reference flow cell was subtracted from the analyte binding response obtained from flow cell with immobilized ligands. Buffer reference was subtracted from analyte binding responses, and the final double-referenced data were analyzed with Biacore T200 Evaluation software (2.0, GE), globally fitting data to derive kinetic parameters. All sensorgrams were fitted using two-state reaction model, as described in Weirong Wang et al, DrugMetab Dispos.: 39(9): 1469-77 (2011).
# Fc gamma receptor RI = molecular target: T8, Fc gamma receptor RI (human, UniProt P12314 16-288); test: SPR, Fc captured, receptor as analyte
# T8 construct: also called FcγRI
# Method: (§1) Fc mutations to be potentially integrated into an ADAPTIR™ bispecific construct were analyzed for binding to the common Fc receptors (human and cyno) and C1Q, which is a component of the complement activation system. SPR experiments were conducted at 25° C. in HBS-EP+ buffer on a Biacore T200 system.
# (§2) For these experiments, all four flow cells of a CM5 sensor chip were immobilized with goat F(ab′)2 anti-human Fc (Jackson ImmunoResearch) to a response level of ˜4000 RU. Fc variants and wild type Fc were diluted to 100 nM in HBS-EP+ and captured on the surface of the chip for 120 seconds at a flow rate of 10 μL/min. Fcγ receptors (human and cyno, all purchased from R&D Systems) and complement (C1Q, purchased from Quidel Corporation and Complement Technology, Inc) were diluted in HBS-EP+ and then flowed as analytes at 30 μL/min for 120 seconds followed by a 120 seconds dissociation. Regeneration was achieved by flowing 10 mM glycine pH 1.7 at 30 μL/min for 30 seconds followed by a 60 seconds stabilization. Flow cell 1 was always left as a blank (no captured protein) for purposes of background signal subtraction. Blank-subtracted sensorgrams for each captured Fc variant were inspected for the presence of binding to any of the Fcγ receptor proteins or complement. There are polymorphisms in the Human Fc receptors IIA and RIIIA, so both sequences were tested for binding.
# Fc gamma receptor RIIIB = molecular target: T9, Fc gamma receptor RIIIB (human, UniProt O75015 17-200); test: SPR, Fc captured, receptor as analyte
# T9 construct: soluble SPR analyte
# Method: as §1, §2
# [2] = molecular target: T1, Fc gamma receptor RIIA H167; test: SPR, Fc captured, receptor as analyte
# Method: as §1, §2
# [3] = molecular target: T10, Fc gamma receptor RIIIA V176 (human, UniProt P08637 17-208); test: SPR, Fc captured, receptor as analyte
# T10 construct: soluble SPR analyte
# Method: as §1, §2
# Fc gamma receptor RIIB/C = molecular target: T2, Fc gamma receptor RIIB/C; test: SPR, Fc captured, receptor as analyte
# Method: as §1, §2
# C1Q = molecular target: T11, C1Q (UniProt P02745 23-245; P02746 28-253; P02747 29-245); test: SPR, Fc captured, C1Q as analyte
# T11 construct: also called complement C1Q
# Method: as §1, §2
# [4] = molecular target: T3, Fc gamma receptor RIIA R167; test: SPR, Fc captured, receptor as analyte, relative to wild type Fc
# Method: as §1, §2
# [5] = molecular target: T4, Fc gamma receptor RIIA H131 on CHO-K1SV …; test: flow cytometry, CHO-K1SV transfectants
# Method: (§3) CHO-K1SV cells stably transfected with a series of FcγR receptors were incubated with each of the […] listed in Table 23. A typical experiment labeled approximately 100,000 cells per well, in 96-well plates, with a range of binding molecule concentrations of 1 to 1000 nM, in 100 μl of PBS buffer with 0.2% BSA and 2 mM EDTA, for 30 minutes on ice, followed by washes and incubation with PE-labeled minimum cross species reactive secondary antibody, goat anti-human IgG Fcγ, F(ab′)2 ([…]) for 30 minutes to 1 hour on ice. Signal from bound molecules was detected using a LSR-II™ flow cytometer (BD Biosciences) and analyzed by FlowJo flow cytometry analysis software. Mean fluorescence intensity (MFI) of bound molecules on cells was determined after exclusion of doublets.
# [6] = molecular target: T5, Fc gamma receptor RIIB/C on CHO-K1SV …; test: flow cytometry, CHO-K1SV transfectants
# Method: as §3
# [7] = molecular target: T12, Fc gamma receptor RIIIA F158 on CHO-K1SV cells (human, UniProt P08637 17-254); test: flow cytometry, CHO-K1SV transfectants
# T12 construct: whole, on cells
# Method: as §3
# [8] = molecular target: T13, Fc gamma receptor RIIIB on CHO-K1SV cells (human, UniProt O75015 17-200); test: flow cytometry, CHO-K1SV transfectants
# T13 construct: whole, on cells
# Method: as §3
# [9] = molecular target: T14, Fc gamma receptor RIIIA V158 on CHO-K1SV cells (human, UniProt P08637 17-254); test: flow cytometry, CHO-K1SV transfectants
# T14 construct: whole, on cells
# Method: as §3
# [10] = molecular target: T15, Fc gamma receptor RI on CHO-K1SV cells (human, UniProt P12314 16-374); test: flow cytometry, CHO-K1SV transfectants
# T15 construct: whole, on cells; also called FcγR1 cells
# Method: as §3
# Cyno RIII = molecular target: T16, Cyno RIII (cynomolgus monkey, UniProt Q8SPW2 17-208); test: SPR, Fc captured, receptor as analyte
# T16 construct: extracellular domain
# Method: as §2
# [11] = molecular target: T10, Fc gamma receptor RIIIA V176; test: SPR, Fc captured, receptor as analyte, relative to wild type Fc
# Method: as §1, §2
# Full-length Cyno 4-1BB = molecular target: T6, Full-length Cyno 4-1BB; test: binding to cells expressing full length cyno 41BB
# Full-length Human 4-1BB = molecular target: T17, Full-length Human 4-1BB (human, UniProt Q07011 24-255); test: binding to cells expressing full length human 41BB
# T17 construct: also called FOB005; CD137
# T15 sequence (P12314 16-374): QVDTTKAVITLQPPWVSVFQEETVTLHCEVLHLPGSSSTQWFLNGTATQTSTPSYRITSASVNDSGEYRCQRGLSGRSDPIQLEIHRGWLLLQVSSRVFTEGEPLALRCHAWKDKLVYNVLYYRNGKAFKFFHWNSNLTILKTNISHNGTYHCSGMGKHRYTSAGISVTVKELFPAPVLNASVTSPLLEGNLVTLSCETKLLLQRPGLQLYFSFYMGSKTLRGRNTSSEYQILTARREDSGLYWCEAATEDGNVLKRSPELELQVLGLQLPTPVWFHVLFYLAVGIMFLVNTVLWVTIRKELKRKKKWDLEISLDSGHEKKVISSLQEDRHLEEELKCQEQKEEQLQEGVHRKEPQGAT
# T10 sequence (P08637 17-208 F176V): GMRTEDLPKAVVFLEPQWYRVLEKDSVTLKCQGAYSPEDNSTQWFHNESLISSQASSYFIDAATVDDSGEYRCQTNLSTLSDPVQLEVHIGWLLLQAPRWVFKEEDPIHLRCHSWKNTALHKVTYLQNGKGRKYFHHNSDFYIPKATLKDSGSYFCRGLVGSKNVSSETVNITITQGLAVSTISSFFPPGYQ
# T13 sequence (O75015 17-200): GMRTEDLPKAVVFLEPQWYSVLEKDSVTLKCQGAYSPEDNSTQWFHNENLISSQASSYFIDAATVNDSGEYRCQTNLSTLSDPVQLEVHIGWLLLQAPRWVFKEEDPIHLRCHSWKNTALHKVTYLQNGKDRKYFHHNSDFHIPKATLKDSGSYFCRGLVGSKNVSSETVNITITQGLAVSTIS
# T9 sequence (O75015 17-200): as above
# T11 sequence (P02745 23-245 limits assumed, chain 1 of 3): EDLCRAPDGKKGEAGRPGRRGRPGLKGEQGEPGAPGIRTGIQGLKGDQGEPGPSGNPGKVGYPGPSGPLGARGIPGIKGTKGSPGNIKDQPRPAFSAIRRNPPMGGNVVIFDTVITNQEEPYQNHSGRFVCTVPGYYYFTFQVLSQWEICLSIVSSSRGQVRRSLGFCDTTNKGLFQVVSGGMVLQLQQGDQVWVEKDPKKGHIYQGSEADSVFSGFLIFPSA
# T11 sequence (P02746 28-253 limits assumed, chain 2 of 3): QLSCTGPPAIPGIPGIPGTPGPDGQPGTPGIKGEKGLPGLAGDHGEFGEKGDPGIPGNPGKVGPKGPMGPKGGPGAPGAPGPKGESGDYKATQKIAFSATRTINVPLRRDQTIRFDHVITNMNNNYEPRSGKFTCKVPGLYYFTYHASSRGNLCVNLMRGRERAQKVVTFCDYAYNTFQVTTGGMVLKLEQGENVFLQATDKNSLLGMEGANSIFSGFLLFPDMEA
# T11 sequence (P02747 29-245 limits assumed, chain 3 of 3): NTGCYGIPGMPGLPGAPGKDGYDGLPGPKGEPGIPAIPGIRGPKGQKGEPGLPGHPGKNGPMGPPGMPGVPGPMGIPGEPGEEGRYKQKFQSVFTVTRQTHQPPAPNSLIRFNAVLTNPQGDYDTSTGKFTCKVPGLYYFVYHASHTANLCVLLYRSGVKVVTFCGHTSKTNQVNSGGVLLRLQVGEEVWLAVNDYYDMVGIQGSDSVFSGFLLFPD
# T12 sequence (P08637 17-254): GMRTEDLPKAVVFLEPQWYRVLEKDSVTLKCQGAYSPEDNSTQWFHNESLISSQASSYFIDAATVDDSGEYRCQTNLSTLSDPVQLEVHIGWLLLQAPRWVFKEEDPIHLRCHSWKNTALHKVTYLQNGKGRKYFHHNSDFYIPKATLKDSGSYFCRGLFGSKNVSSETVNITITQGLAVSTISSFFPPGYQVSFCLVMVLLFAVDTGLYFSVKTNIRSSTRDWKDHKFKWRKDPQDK
# T8 sequence (P12314 16-288 limits assumed): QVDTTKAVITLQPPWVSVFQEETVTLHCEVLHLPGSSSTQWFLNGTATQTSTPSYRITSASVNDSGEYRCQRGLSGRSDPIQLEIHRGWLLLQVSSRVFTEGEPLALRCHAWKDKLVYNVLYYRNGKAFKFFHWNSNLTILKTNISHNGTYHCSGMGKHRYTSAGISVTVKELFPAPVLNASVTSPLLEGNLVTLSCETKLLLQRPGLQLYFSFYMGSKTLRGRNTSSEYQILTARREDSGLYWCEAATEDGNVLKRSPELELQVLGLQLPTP
# T16 sequence (Q8SPW2 17-208): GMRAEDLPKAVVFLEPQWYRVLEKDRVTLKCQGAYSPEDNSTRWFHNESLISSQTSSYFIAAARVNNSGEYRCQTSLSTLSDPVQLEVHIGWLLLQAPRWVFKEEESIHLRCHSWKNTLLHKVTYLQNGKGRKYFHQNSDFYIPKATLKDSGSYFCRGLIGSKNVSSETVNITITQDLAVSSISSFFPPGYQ
# T14 sequence (P08637 17-254 F176V): as the sequence (P08637 17-254) above, with F160V counted along it
Kd [1] [nM],binding result (Fc gamma receptor RI),binding result (Fc gamma receptor RIIIB),binding result [2],binding result [3],binding result (Fc gamma receptor RIIB/C),binding result (C1Q),binding result [4],binding result [5],binding result [6],binding result [7],binding result [8],binding result [9],binding result [10],binding result (Cyno RIII),binding result [11],binding result (Full-length Cyno 4-1BB),binding result (Full-length Human 4-1BB),Binder
20,no binding,no binding,no binding,no binding,no binding,no binding,binds,no binding (tested: 1 to 1000 nM),no binding (tested: 1 to 1000 nM),no binding (tested: 1 to 1000 nM),no binding (tested: 1 to 1000 nM),no binding (tested: 1 to 1000 nM),no binding (tested: 1 to 1000 nM),no binding,,,,B1
19,no binding,no binding,no binding,,no binding,no binding,binds,no binding (tested: 1 to 1000 nM),no binding (tested: 1 to 1000 nM),no binding (tested: 1 to 1000 nM),no binding (tested: 1 to 1000 nM),,no binding (tested: 1 to 1000 nM),no binding,binds,,,B2
19,no binding,no binding,no binding,no binding,no binding,no binding,binds,no binding (tested: 1 to 1000 nM),no binding (tested: 1 to 1000 nM),no binding (tested: 1 to 1000 nM),no binding (tested: 1 to 1000 nM),no binding (tested: 1 to 1000 nM),no binding (tested: 1 to 1000 nM),no binding,,,,B3
,,,,,,,,,,,,,,,,binds,binds,B4
